Measurements: patent US8361765B2, “Enzymic method for the enantioselective reduction of keto compounds” (IEP GmbH, priority 2001, dated 2013)

Assays:
Assay type in all cases: biochemical, Lactobacillus minor
[1] = Temperature stability of L. minor alcohol dehydrogenase; conditions: for temperature up to which the enzyme is stable: 30 min incubation; for Activity in % (n = 4): measured at 30° C.
Method: The temperature stability for the range from 25° C. to 50° C. was determined similarly to the manner described in A.). For this purpose, in each case a 1:100 dilution of the purified enzyme was incubated at the particular temperature for 30 min and then measured at 30° C. using the above assay procedure. Here too, the starting value used was the measured value obtained immediately after diluting the enzyme in triethanolamine buffer 50 mM pH=7.0. This value was also set here as 100% value. L. minor alcohol dehydrogenase is stable up to a temperature of 40° C. Thereafter, the activity rapidly declines.

[2] = Temperature optimum of the enzymic reaction
Method: The optimal assay temperature was determined by measuring the enzyme activity from 25° C. to 60° C. The assay mixture corresponded to the standard concentration of ethyl 4-chloro-3-oxo-butanoate and NADPH.

[3] = Enzyme obtainment and purification: activity of crude extract and purified enzyme; conditions: for volume activity: 25° C.
Method: The enzyme was obtained by culturing the strain with the highest enzymic activity in a fermenter (fed batch, 10 l) and inducing it at 40 OD500 with 1 mM IPTG. After 18 h, the cells were harvested, taking up 300 g of cells in 3 l of Kpi buffer (50 mM, pH=7, 1 mM MgCl2) and disrupted subsequently by means of a French press (Gaullin, Siemens).
To characterize the enzyme, a portion of the enzyme obtained was purified by means of […] chromatography on Q-Sepharose ff (fast flow). For this purpose, the column used was equilibrated with 50 mM Kpi buffer pH=7.0, 1 mM MgCl2. After application of the crude extract to the column and brief washing with equilibration buffer, the enzyme was eluted with an increasing linear salt gradient (0-1M NaCl, 1 ml/min) at a salt concentration of about 0.3 M NaCl. […] The enzyme purified in this way thus has a specific activity of approximately 35 to 40 U/mg of protein.
All enzymic activities were determined at 25° C. The enzyme activity was calculated as follows: • Calculation: 1 unit=conversion of 1 μmol of substrate per min • Lambert-Beer law • NADPH decrease was monitored at 340 nm (see enzymic assay mixture)=ΔE/min • N=enzyme dilution factor • V=enzyme volume in ml (0.01) • Vcuvette=cuvette volume=1 ml • d=cuvette light path=1 cm • eNADPH NADPH extinction coefficient=6.22 [mM^−1*cm^−1] • Activity=(ΔE/min*N*Vcuvette)/(eNADPH*V*d)
Protein determination was carried out according to Bradford (Bio-Rad Laboratories GmbH, Protein Assay).

[4] = pH optimum of the enzymic reaction; conditions: 30° C.
Method: As in the standard assay, the concentration of ethyl 4-chloro-3-oxo-butanoate and of NADPH was 10 mM and 0.19 mM, respectively. The reaction was determined at 30° C.

[5] = pH stability of cloned L. minor alcohol dehydrogenase
Method: The activity of the enzyme as a function of storage in buffers with different pH values in the range from pH 4 to 11 was studied. For this purpose, various buffers (50 mM) in the range from pH 4 to 11 were prepared and the enzyme purified in Example 2 was diluted 1:100 therein and incubated for 30 min. All buffers contained 1 mM MgCl2. 10 μl of this were then used in the normal enzyme assay (triethanolamine buffer 100 mM pH=7.0, 1 mM MgCl2, 10 mM ethyl 4-chloro-3-oxo-butanoate and 0.19 mM NADPH). The reaction was monitored at 30° C. and 340 nm for 1 min.
The starting value here is the measured value obtained immediately after diluting the enzyme in triethanolamine buffer 50 mM pH=7.0. Under predefined conditions, this value corresponded to a change in extinction of 0.20/min and was set as 100% value, with all subsequent measured values being related to this value.

[6] = tested on: L. minor alcohol dehydrogenase; assay: Enzyme stability under process conditions; conditions: for several days
Method: The stability of the enzyme under process conditions was studied by diluting L. minor alcohol dehydrogenase 1:100 with the solvent mixtures used in the two-phase system, followed by incubation at room temperature. 10 μl of the enzyme solution were then used in the standard assay mixture. Table 8 depicts the enzyme activities as a % of the starting value.

[7] = crude extract after fermentation and French press

B1: L. minor alcohol dehydrogenase: R-specific alcohol dehydrogenase from Lactobacillus minor, SEQ ID NO: 4, overexpressed in Escherichia coli RB 791 (protein, listed as Lactobacillus sp.)
chain: MRGSHHHHHHGSMTDRLKGKVAIVTGGTLGIGLAIADKFVEEGAKVVITGRHADVGEKAARSIGGTDVIRFVQHDASDETGWTKLFDTTEEAFGPVTTVVNNAGIAVSKSVEDTTTEEWRKLLSVNLDGVFFGTRLGIQRMKNKGLGASIINMSSIEGEVGDPALGAYNASKGAVRIMSKSAALDCALKDYDVRVNTVHPGYIKTPLVDDLEGAEEMMSQRTKTPMGHIGEPNDIAWICVYLASDESKFATGAEFVVDGGYTAQ
temperature up to which the enzyme is stable [1]: ≤ 40 °C | temperature up to which the enzyme is stable ([1]; listed as Lactobacillus minor alcohol dehydrogenase): about 40 °C | Activity in % (n = 4) ([1]; after 30 min at 25° C.): 101 ± 3.2% | Activity in % (n = 4) ([1]; after 30 min at 30° C.): 81.2 ± 5.8% | Activity in % (n = 4) ([1]; after 30 min at 35° C.): 67.0 ± 1.6% | Activity in % (n = 4) ([1]; after 30 min at 37° C.): 20.2 ± 2.4% | Activity in % (n = 4) ([1]; after 30 min at 40° C.): 33.4 ± 3.8% | Activity in % (n = 4) ([1]; after 30 min at 42° C.): 0 ± 0% | Activity in % (n = 4) ([1]; after 30 min at 45° C.): 0 ± 0% | Activity in % (n = 4) ([1]; after 30 min at 50° C.): 0 ± 0% | Activity in U/ml of undiluted enzyme ([2]; assay temperature 25° C.): 540 U/ml | Activity in U/ml of undiluted enzyme ([2]; assay temperature 30° C.): 1235 U/ml | Activity in U/ml of undiluted enzyme ([2]; assay temperature 35° C.): 1968 U/ml | Activity in U/ml of undiluted enzyme ([2]; assay temperature 40° C.): 1621 U/ml | Activity in U/ml of undiluted enzyme ([2]; assay temperature 45° C.): 2469 U/ml | Activity in U/ml of undiluted enzyme ([2]; assay temperature 50° C.): 2469 U/ml | Activity in U/ml of undiluted enzyme ([2]; assay temperature 55° C.): 2855 U/ml | Activity in U/ml of undiluted enzyme ([2]; assay temperature 60° C.): 0 U/ml | activity per wet mass [3, 7]: 20 000 U/g of wet mass | volume activity [3, 7]: approximately 2000 U/ml | activity per wet mass on overexpression in Escherichia coli ([3]; overexpressed in Escherichia coli RB 791): 20 000 units/g of wet mass | volume activity ([3]; purified enzyme, Q-Sepharose ff): about 800 U/ml | Activity in U/ml of undiluted enzyme ([4]; assay at pH 4, sodium acetate/acetic acid): 85 U/ml | Activity in U/ml of undiluted enzyme ([4]; assay at pH 4.5, sodium acetate/acetic acid): 132 U/ml | Activity in U/ml of undiluted enzyme ([4]; assay at pH 5, MES/NaOH): 218 U/ml | Activity in U/ml of undiluted enzyme ([4]; assay at pH 5.5, MES/NaOH): 240 U/ml | Activity in U/ml of undiluted enzyme ([4]; assay at pH 6, triethanolamine/NaOH): 381 U/ml | Activity in U/ml of undiluted enzyme ([4]; assay at pH 6.5, triethanolamine/NaOH): 349 U/ml | Activity in U/ml of undiluted enzyme ([4]; assay at pH 7, triethanolamine/NaOH): 510 U/ml | Activity in U/ml of undiluted enzyme ([4]; assay at pH 7.5, tris/HCl): 707 U/ml | Activity in U/ml of undiluted enzyme ([4]; assay at pH 8, tris/HCl): 585 U/ml | Activity in U/ml of undiluted enzyme ([4]; assay at pH 8.5, tris/HCl): 486 U/ml | Activity in U/ml of undiluted enzyme ([4]; assay at pH 9, tris/HCl): 488 U/ml | Activity in U/ml of undiluted enzyme ([4]; assay at pH 10, glycine/NaOH): 131 U/ml | Activity in U/ml of undiluted enzyme ([4]; assay at pH 11, glycine/NaOH): 0 U/ml | Activity in % (n = 2) ([5]; after 30 min at pH 4, sodium acetate/acetic acid 50 mM, 100% = value directly after dilution): 87.5 ± 6.5% | Activity in % (n = 2) ([5]; after 30 min at pH 4.5, sodium acetate/acetic acid 50 mM): 94.5 ± 3.0% | Activity in % (n = 2) ([5]; after 30 min at pH 5, MES/NaOH 50 mM): 55 ± 5% | Activity in % (n = 2) ([5]; after 30 min at pH 5, sodium acetate/acetic acid 50 mM): 94.5 ± 1.5% | Activity in % (n = 2) ([5]; after 30 min at pH 5.5, KH2PO4/K2PO4 50 mM): 96 ± 3% | Activity in % (n = 2) ([5]; after 30 min at pH 5.5, MES/NaOH 50 mM): 77.1 ± 2.1% | Activity in % (n = 2) ([5]; after 30 min at pH 6, KH2PO4/K2PO4 50 mM): 100 ± 0% | Activity in % (n = 2) ([5]; after 30 min at pH 6, triethanolamine/NaOH 50 mM): 100 ± 0% | Activity in % (n = 2) ([5]; after 30 min at pH 6.5, KH2PO4/K2PO4 50 mM): 97.5 ± 2.5% | Activity in % (n = 2) ([5]; after 30 min at pH 6.5, triethanolamine/NaOH 50 mM): 100 ± 0% | Activity in % (n = 2) ([5]; after 30 min at pH 7, KH2PO4/K2PO4 50 mM): 100 ± 0% | Activity in % (n = 2) ([5]; after 30 min at pH 7, triethanolamine/NaOH 50 mM): 97.9 ± 2.1% | Activity in % (n = 2) ([5]; after 30 min at pH 7.5, KH2PO4/K2PO4 50 mM): 97.5 ± 7.5% | Activity in % (n = 2) ([5]; after 30 min at pH 7.5, tris/HCl 50 mM): 94.6 ± 1.3% | Activity in % (n = 2) ([5]; after 30 min at pH 8, KH2PO4/K2PO4 50 mM): 93.0 ± 3.0% | Activity in % (n = 2) ([5]; after 30 min at pH 8, tris/HCl 50 mM): 89.2 ± 0% | Activity in % (n = 2) ([5]; after 30 min at pH 8.5, KH2PO4/K2PO4 50 mM): 102.5 ± 2.5% | Activity in % (n = 2) ([5]; after 30 min at pH 8.5, tris/HCl 50 mM): 60 ± 4.2% | Activity in % (n = 2) ([5]; after 30 min at pH 9, glycine/NaOH 50 mM): 76.5 ± 1.5% | Activity in % (n = 2) ([5]; after 30 min at pH 9, tris/HCl 50 mM): 63.1 ± 4.8% | Activity in % (n = 2) ([5]; after 30 min at pH 9.5, glycine/NaOH 50 mM): 52.5 ± 7.5% | Activity in % (n = 2) ([5]; after 30 min at pH 10, glycine/NaOH 50 mM): 52.5 ± 7.5% | Activity in % (n = 2) ([5]; after 30 min at pH 11, glycine/NaOH 50 mM): 0.0 ± 0% | stability in the combination of solvents used in the two-phase system (in words) [6]: stable and active
